# Assay results reported in patent US20200240982A1 (GOVERNMENT OF THE UNITED STATES OF AMERICA AS REPRESENTED …, published 2020).
# T1: Staphylococcal enterotoxin B (UniProt P01552 28-266)
# T1 sequence: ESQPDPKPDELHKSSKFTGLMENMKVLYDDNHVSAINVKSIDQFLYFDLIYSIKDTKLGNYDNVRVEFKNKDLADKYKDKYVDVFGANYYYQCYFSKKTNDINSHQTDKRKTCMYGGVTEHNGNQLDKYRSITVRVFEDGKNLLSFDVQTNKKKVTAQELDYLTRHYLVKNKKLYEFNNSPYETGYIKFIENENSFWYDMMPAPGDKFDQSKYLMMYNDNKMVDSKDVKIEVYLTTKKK
# B1: DD7-DD7-SpyTag (VHH)
# chain: EVQLVQSGGGSVQAGGSLRLSCAHSSITVPDYTIGWFRRAPGKGGEEVSLISMHGGRSWYAGSVKGRFAISRDSVKNTVYLQMNNLKPEDTDIYYCGGTTFGLAAAPNEYDSWGQGSQVTVSSGGGGSGGGGSGSEVQLVQSGGGSVQAGGSLRLSCAHSSITVPDYTIGWFRRAPGKGGEEVSLISMHGGRSWYAGSVKGRFAISRDSVKNTVYLQMNNLKPEDTDIYYCGGTTFGLAAAPNEYDSWGQGSQVTVSSGGGGSGGGGSGSAHIVMVDAYKPTKAAALEHHHHHH
# B2: AcVe anti-SEB sdAb monomer (VHH)
# VHH: DVQLVESGGGLVQPGGSLRLTCAASGLIFGSYAMGWFRQAPGKAREFVAAISWSGGDTYADSVKGRFTISRDNAKNTVYLQMNSLEPEDTAVYSCAAVGSKYYISKDAKDYGYWGQGTQVTVSS
# What was measured:
# [1] = biological target: Dengue NS1 protein (serotype not given) (Dengue virus)
# [2] = biological target: T1, Staphylococcal enterotoxin B; test: MagPlex sandwich fluoroimmunoassay; capture sdAb attached directly by EDC/sNHS
Binder,fold improvement in ability to detect NS1 (against DD7-gs3k) [1],binding result [2]
B1,~25 fold,
B2,,binds
